Experimental data as given in the supplement of paper PMC12042874.
± gives the uncertainty stated by the source.

Assay: amyloid nucleation score (Sup35N fusion, yeast selection) (log enrichment); library NNK3; higher = more nucleation; inactive = no reads after selection
Procedure, shortened: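 Output and input plasmid inserts were sequenced by Illumina after psi-negative yeast carrying Sup35N fused to peptides of 20 random codons had been induced 24 hours with 100 μM copper sulfate and grown 7 days at 30°C on medium lacking adenine and uracil. The nucleation score is the DiMSum log enrichment of output over input reads, centred on the mode score of non-aggregating sequences. Sequences with under 100 input reads were excluded.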

Substance | amyloid nucleation score
MLGLCPFKSDWLLIYRSMWC | 1.32 ± 0.15
MLHASV | inactive
MLLFHLVVQLNDLLSAPLRA | inactive
MLLYYEEGLCIFLLSLNPVC | inactive
MLNLRCSKCGMMPLRNRIVS | inactive
MLSDSLHHSSNIVTLVTRGS | inactive
MLSFLYRELN | inactive
MLSWLYTSGRSRYVILLQP | inactive
MLVVWLFMWFIHINKRWDGA | inactive
MLWEVDLNVRTSMADT | inactive
MMNSWDPVMLYSYGNTEVVH | inactive
MNEGLYS | inactive
MNEKENMMNTQWIVCNTCAK | inactive
MNFPR | inactive
MNGDSAMWFSISS | inactive
MNRMCVLLVNFCVDTD | 1.9 ± 0.06
MNTACS | inactive
MNWFELFAHCLLKQFQRTLQ | inactive
MNYVIIFTWN | 2.76 ± 0.071
MPDLITGGKPAIRWYYGSDS | inactive
MPIGTSSYFFSQKICHYTSR | 1.77 ± 0.09
MPIRCSTSLHWTTTMWMTVW | inactive
MPWGTWGAS | inactive

Substance | amyloid nucleation score
MPWKSMAHFYALEFDLRCLR | 0.619 ± 0.22
MQLDLMCCLVSCTMNTFSSR | 1.54 ± 0.11
MQSAVNVV | inactive
MQVILNNVFSTFPLPAGLLR | inactive
MRAFIRYCIFVCMSAYRNMV | -0.352 ± 0.73
MRFSKGNYLYMREGHKGFCG | inactive
MRGWLRLSELCKGVLIVGFA | inactive
MRIRIPTSNNEGYPIFMSAL | inactive
MRLYLFSRYPLARTTFMSTC | inactive
MRMFCDIYLIVIDTEFMLHF | inactive
MRSWRMRGSERFAHSLRGYL | inactive
MRVYFMWATTWLA | inactive
MRYLDLYGRARNVRIRVRRT | inactive
MSCRARRTNLF | inactive
MSCYN | inactive
MSFWY | inactive
MSGNA | inactive
MSHDTFDV | inactive
MSLGFALVSILVCF | inactive
MSMRLRIYKFFEICANSMMP | inactive
MSRTKPLGF | inactive
MSSPAPFWSVNSVLAIKNLF | inactive
MSSQCWRQIGWDTCARS | inactive

Substance | amyloid nucleation score
MSSQVMALIRFQFHSHDSHG | 1.36 ± 0.16
MSSYKCSECLRGHRGTPLPV | inactive
MSVQHER | inactive
MTCTVRSEVYIHFNFVAIKF | 0.299 ± 0.33
MTCWTTYNGTDIEGKGGINN | inactive
MTFIRPKLGKKPGMYGTNIV | inactive
MTGLLMSKTARFCRRNR | inactive
MTNLCRRVGKKFPNRSHSGY | inactive
MTPGFCLPK | inactive
MTRCLSFWTRSQVLYFCWKL | inactive
MTVRETLYWVRS | inactive
MTVWNSWNINIVWVMFLSA | inactive
MTYCRVFRNRASDKPYMMRL | inactive
MTYVGGSVQYGRSLRHRIDR | inactive
MVCISL | inactive
MVDSRLNSSLNYSLCLSDVK | inactive
MVFCNGFGYGASNFGNNSAS | inactive
MVFMADK | 0.268 ± 0.2
MVLDDYIRKGG | 0.073 ± 0.33
MVLYYSLILFAHCLKLARHN | inactive
MVRMDHCQVEDSMVTNVD | inactive
MVRSRLSASRRSICGPIISA | inactive
MVVGCCSEGV | inactive

Substance | amyloid nucleation score
MWDIGGARAKDCEGLSVNCI | inactive
MWFHLSYMAIFNGVSMQDVC | inactive
MWFPSVLWTIISQSYEMQKL | 0.783 ± 0.12
MWHLTF | inactive
MWICVILGSQIWSRWETMNG | inactive
MWPNITLFFSWRTEVLLYLI | inactive
MWPYIMILGIVDTMWLLLSP | inactive
MYDGKNWQLAQ | inactive
MYERRSLDKKVHRCYILALT | inactive
MYFVKMLMGVILLVNFSRW | inactive
MYGHIYHFRINTLWGVNL | inactive
MYGLLIKNSYRKRLDLSVSI | inactive
MYGPMVWVDLYTCKTHRGAS | inactive
MYLPWISSSGVLNRTSMSFY | 0.668 ± 0.12
MYLVR | inactive
MYPHAQIEYYAVAHSLAIV | inactive
MYSPVFRI | inactive
MYTLCQMLNVRTRDMTCVTR | inactive
NAENFYV | inactive
NAEVALDHSSDLDS | inactive
NAFDFSL | inactive
NAFGYSDVTVLVNSSLFESY | inactive
NAHPWGYWSIVMRNIKVVVL | inactive

Substance | amyloid nucleation score
NALMKSVTFWCSAGISISRL | 1.26 ± 0.11
NAVSDTGRKRECFRADRFLS | inactive
NCDILVLCLSCIADGRQSYE | 2.96 ± 0.078
NCFVSICLFFASTFWLGLHN | inactive
NCICLSGHFGHL | 2.24 ± 0.091
NCIECRTDTYW | inactive
NCLFWSEVRFHVMCFCDWLL | inactive
NCPQWDVCFTYLSSGRQRAD | inactive
NCSSVPVSALFGEGVRKTPS | inactive
NCVRSLCMLWTTFTCVNDLC | 2.1 ± 0.079
NDKVGRAL | inactive
NEDST | inactive
NEFGEVLDSN | inactive
NEIMVTLHNV | inactive
NEIQAYIRWSI | inactive
NENPDNYLRIAVWTTFFSFC | 1.57 ± 0.095
NERFERMKRKSVQLPLYVVM | -0.009 ± 0.53
NESFDCPFAGLYRKQYIWQT | inactive
NESISPFVTKRHPEFMRFNC | inactive
NFENMSCSNTVNVLFIEPGA | 1.14 ± 0.096
NFFNLLGMKLVR | inactive
NFFRDSGRMCHPKGIGDRWT | inactive
NFGQTGRCYKRLRFC | inactive

Substance | amyloid nucleation score
NFINYLR | inactive
NFKAT | inactive
NFLFISYYVPGQCTV | inactive
NFLLDSLSSETGFRCY | -0.607 ± 1
NFLRAKDLEYRTV | -0.761 ± 1.1
NFSPHTFVSNSM | inactive
NFTMNLIIGCF | 1.3 ± 0.12
NFTSRSAVLVR | 2.21 ± 0.07
NGDHRRCSLIT | inactive
NGDMKARTFHTRDFKFGVPR | inactive
NGELLCKGH | inactive
NGRWRRFLWKNGCMELYRTG | 1.52 ± 0.085
NGSYIFPSNCYSKIAIVMVG | 0.706 ± 0.26
NGVCTVNVTFCYMV | 2.23 ± 0.058
NHRYMMVTATRIKWDGVSWN | inactive
NHSSYG | inactive
NHWGSNWWLVYKVYSGGLLM | inactive
NHYWQ | inactive
NIICTWCGGFMRLNLNV | 1.9 ± 0.073
NIIVWPVCGILLYTHSIS | inactive
NIKGFRVDKYVETL | inactive
NINRFLDLSSWIGYQNGYKA | inactive
NISLLWDGAFCIYVCLLWRG | -0.438 ± 0.9

Substance | amyloid nucleation score
NISSTSFRMGNIIGNEFLVY | inactive
NIVAVRCWFLDFPQDD | inactive
NIYFLVRDSSRIRHKSVGWQ | 2.17 ± 0.06
NKKDHAYKWISVD | inactive
NKQNEVSRSCLSRCRYFGGD | inactive
NKRLAQRQWDTACFQKG | inactive
NLDLWMQSCFHRVAVYS | inactive
NLDQHCRCVIGFAITYYVGY | inactive
NLENVLFRDRYQSSTCKLCK | inactive
NLGGAPVL | inactive
NLGTTLYVEICNWRIVLYIV | inactive
NLGYALICQSRVGGTFLVNS | inactive
NLIWTVHLVVTSVISDLCVG | inactive
NLKAM | inactive
NLKFRRFTGNMCSTPKVCLK | inactive
NLLSLVFIRWGNYRRFKMFR | 0.77 ± 0.22
NLLSSSFLPPGWRSLKLGSS | inactive
NLMGQTSGCQCVNTACLKPC | inactive
NLNRSLVFFSCDYAGCDGCT | 1.48 ± 0.077
NLPTLRVVDILCLCFYRIPS | inactive
NLPVF | inactive
NLQNGDYITVWTEWEQEACR | inactive
NLRFIRGANSA | inactive
